Test results: patent US20200317768A1 (published 2020)
Residue numbers refer to the chain shown, from its start.

T1: human FcγRIIaR extracellular domain, C-terminal His-tag (human, UniProt P12318 34-217)
T1 construct: also called human FcγRIIa (type R); FcgRIIaR; not shown: His-tag added to C-terminus
T1 chain: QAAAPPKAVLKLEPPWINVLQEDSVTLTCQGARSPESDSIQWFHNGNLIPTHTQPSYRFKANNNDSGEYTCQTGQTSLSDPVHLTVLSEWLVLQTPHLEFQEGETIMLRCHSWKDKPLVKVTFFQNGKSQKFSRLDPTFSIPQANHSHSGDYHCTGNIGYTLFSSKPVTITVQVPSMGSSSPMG

T2: cynomolgus monkey FcγRIIa2 extracellular domain, C-terminal His-tag (cynomolgus monkey)
T2 construct: also called cyno FcγRIIa2; cynoFcgRIIa2; not shown: His-tag added to C-terminus
T2 chain: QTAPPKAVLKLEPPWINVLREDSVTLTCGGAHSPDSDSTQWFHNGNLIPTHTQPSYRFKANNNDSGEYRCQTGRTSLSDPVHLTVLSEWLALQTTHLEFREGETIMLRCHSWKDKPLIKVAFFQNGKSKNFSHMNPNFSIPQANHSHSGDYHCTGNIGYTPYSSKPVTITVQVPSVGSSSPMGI

T3: human FcγRIIb extracellular domain, C-terminal His-tag (human, UniProt P31994 43-217)
T3 construct: also called FcgRIIb (human); not shown: His-tag added to C-terminus
T3 sequence: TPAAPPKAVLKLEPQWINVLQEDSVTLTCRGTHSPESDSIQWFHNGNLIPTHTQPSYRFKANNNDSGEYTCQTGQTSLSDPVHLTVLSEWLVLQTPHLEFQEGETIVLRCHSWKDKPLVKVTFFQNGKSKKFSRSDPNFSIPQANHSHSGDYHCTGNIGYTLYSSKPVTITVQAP

T4: cynomolgus monkey FcγRIIa3 extracellular domain, C-terminal His-tag (cynomolgus monkey)
T4 construct: also called cyno FcγRIIa3; cynoFcgRIIa3; not shown: His-tag added to C-terminus
T4 chain: T2 chain with K127I, N130K, H133P, Q142R

T5: cynomolgus monkey FcγRIIb extracellular domain, C-terminal His-tag (cynomolgus monkey)
T5 construct: also called cyno FcγRIIb; cynoFcγRIIb; not shown: His-tag added to C-terminus
T5 chain: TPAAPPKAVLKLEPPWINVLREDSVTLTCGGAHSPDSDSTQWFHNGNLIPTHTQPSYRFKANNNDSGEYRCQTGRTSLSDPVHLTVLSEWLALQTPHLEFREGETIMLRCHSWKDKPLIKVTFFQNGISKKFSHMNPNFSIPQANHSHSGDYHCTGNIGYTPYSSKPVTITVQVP

T6: cynomolgus monkey FcγRIIa1 extracellular domain, C-terminal His-tag (cynomolgus monkey)
T6 construct: also called cyno FcγRIIa1; cynoFcgRIIa1; not shown: His-tag added to C-terminus
T6 chain: T2 chain with T95P, A121T, K127I, S128A, N130K, N135D, Q142R

T7: human FcγRIIaH extracellular domain, C-terminal His-tag (human, UniProt P12318 34-217)
T7 construct: also called human FcγRIIa (type H); FcgRIIaH; not shown: His-tag added to C-terminus
T7 sequence: T1 chain with R134H

B1: M103205H795-MY273/M103202L889-SK1 (antibody, human IgG1, kappa)
heavy: QVTLKESGPVLVKPTETLTLTCTVSGIDLSHDDISWVRQAPGKGLEWVGIISYAGSTYYASWAKGRLTISKDTSKNQVVLTMTNMDPVDTATYYCARGVPAYSHGGDLWGQGTLVTVSSASTKGPSVFPLAPSSKSTSGGTAALGCLVKDYFPEPVTVSWNSGALTSGVHTFPAVLQSSGLYSLSSVVTVPSSSLGTQTYICNVNHKPSNTKVDKKVEPKSCDKTHTCPPCPAPELLLGPSVFLFPPKPKDTLMISRTPEVTCVVVDVSDEDPEVKFNWYVDGVEVHNAKTKPREEQYNSTYRVVSVLTVLHQDWLNGKEYKCKVSNKALPKPIEKTISKAKGQPREPQVYTLPPSREEMTKNQVSLTCLVKGFYPSDIAVEWESNGQPENNYKTTPKVLDSDGSFFLYSKLTVDKSRWQQGNVFSCSVMHEALHNHYTQKSLSLSP
light: DIVMTQSPATLSLSPGERATLSCTSSQSVYHANWLSWFQQKPGQPPKLLIYWASTLAYGVPSRFSGSGSGTDFTLTISSLQPEDAATYYCAGGYGGGRYAFGQGTKVEIKRTVAAPSVFIFPPSDEQLKSGTASVVCLLNNFYPREAKVQWKVDNALQSGNSQESVTEQDSKDSTYSLSSTLTLSKADYEKHKVYACEVTHQGLSSPVTKSFNRGEC
B2: M103205H795-MY311/M103202L889-SK1 (antibody, human IgG1, kappa)
heavy: B1 heavy with L238T, D270E, Q297L, K398P
light: B1 light
B3: M103205H795-MY278/M103202L889-SK1 (antibody, human IgG1, kappa)
heavy: B1 heavy with L238M, Q297L, K398P
light: B1 light
B4: M103205H795-MY279/M103202L889-SK1 (antibody, human IgG1, kappa)
heavy: B1 heavy with L238H, Q297L, K398P
light: B1 light
B5: M103205H795-MY318/M103202L889-SK1 (antibody, human IgG1, kappa)
heavy: B1 heavy with D270E, K328T, K398M
light: B1 light
B6: M103205H795-MY274/M103202L889-SK1 (antibody, human IgG1, kappa)
heavy: B1 heavy with L238T
light: B1 light
B7: M103205H795-MY310/M103202L889-SK1 (antibody, human IgG1, kappa)
heavy: B1 heavy with L238T, D270E, K328T, K398P
light: B1 light
B8: M103205H795-MY292/M103202L889-SK1 (antibody, human IgG1, kappa)
heavy: B1 heavy with L238G, G239Y, Q297L, K398M
light: B1 light
B9: M103205H795-MY281/M103202L889-SK1 (antibody, human IgG1, kappa)
heavy: B1 heavy with L238Q, Q297L, K398P
light: B1 light
B10: M103205H795-MY276/M103202L889-SK1 (antibody, human IgG1, kappa)
heavy: B1 heavy with L238I
light: B1 light
B11: M103205H795-MY309/M103202L889-SK1 (antibody, human IgG1, kappa)
heavy: B1 heavy with L238T, D270E, K398M
light: B1 light
B12: M103205H795-MY312/M103202L889-SK1 (antibody, human IgG1, kappa)
heavy: B1 heavy with L238T, D270E, K328T, K398M
light: B1 light
B13: M103205H795-MY293/M103202L889-SK1 (antibody, human IgG1, kappa)
heavy: B1 heavy with L238G, G239Y, D270E, Q297L
light: B1 light
B14: M103205H795-MY308/M103202L889-SK1 (antibody, human IgG1, kappa)
heavy: B1 heavy with L238T, D270E, K398P
light: B1 light

Molecular target: T1, human FcγRIIaR extracellular domain, …
Assay: SPR (Biacore), KD of SG1 / KD of variant;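 also: relative to parent M103205H795-SG1 carrying the SG1 human heavy chain constant region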

Binder	KD fold (SG1 = 1) [fold]
B1	1.1
B2	2.4
B3	0.7
B4	1.5
B5	0.8
B6	6.5
B7	2
B8	14.5
B9	2.8
B10	4.4
B11	4.3
B12	6.5
B13	15.1
B14	1.3

Molecular target: T2, cynomolgus monkey FcγRIIa2 …
Assay: SPR (Biacore), KD of SG1 / KD of variant;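 also: relative to parent M103205H795-SG1 carrying the SG1 human heavy chain constant region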

Binder	KD fold (SG1 = 1) [fold]
B1	1.5
B2	1.5
B3	1.4
B4	1.5
B5	0.7
B6	6.4
B7	1.8
B8	2
B9	2
B10	4.6
B11	2
B12	3.4
B13	1.5
B14	1.9

Molecular target: T3, human FcγRIIb extracellular domain, …
Assay: SPR (Biacore), KD of SG1 / KD of variant;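 also: relative to parent M103205H795-SG1 carrying the SG1 human heavy chain constant region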

Binder	KD fold (SG1 = 1) [fold]
B1	0.9
B2	2.2
B3	1
B4	1
B5	1
B6	4.8
B7	1.6
B8	32.9
B9	2.6
B10	1.9
B11	2.9
B12	4.2
B13	30.7
B14	1.1

Molecular target: T4, cynomolgus monkey FcγRIIa3 …
Assay: SPR (Biacore), KD of SG1 / KD of variant;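 also: relative to parent M103205H795-SG1 carrying the SG1 human heavy chain constant region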

Binder	KD fold (SG1 = 1) [fold]
B1	1.5
B2	2
B3	1.7
B4	3.6
B5	0.5
B6	8.5
B7	2.4
B8	7.7
B9	1.9
B10	3.8
B11	2.4
B12	4.6
B13	4.4
B14	1.3

Molecular target: T5, cynomolgus monkey FcγRIIb extracellular …
Assay: SPR (Biacore), KD of SG1 / KD of variant

Binder	KD fold (SG1 = 1) [fold]
B1	1.5
B2	2.3
B3	1.6
B4	2
B5	0.8
B6	7.8
B7	1.9
B8	4
B9	2.9
B10	5.3
B11	2.9
B12	4.5
B13	2.1
B14	1.2

Molecular target: T6, cynomolgus monkey FcγRIIa1 …
Assay: SPR (Biacore), KD of SG1 / KD of variant

Binder	KD fold (SG1 = 1) [fold]
B1	0.8
B2	1.4
B3	1.1
B4	1.1
B5	0.4
B6	3.6
B7	1.1
B8	2.1
B9	1.7
B10	2.9
B11	1.3
B12	2.3
B13	1.1
B14	1

Molecular target: T8, human FcγRIIIaV extracellular domain, C-terminal His-tag (human, UniProt P08637 17-208)
T8 construct: also called FcgRIIIaV; not shown: His-tag added to C-terminus
T8 sequence (P08637 17-208 F176V): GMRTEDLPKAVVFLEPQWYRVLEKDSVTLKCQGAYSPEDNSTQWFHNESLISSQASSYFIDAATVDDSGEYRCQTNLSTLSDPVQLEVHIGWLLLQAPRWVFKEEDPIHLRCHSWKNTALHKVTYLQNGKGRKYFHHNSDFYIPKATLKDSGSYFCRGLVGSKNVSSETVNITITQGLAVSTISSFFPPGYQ
Assay: SPR (Biacore), KD of SG1 / KD of variant

Binder	KD fold (SG1 = 1) [fold]
B1	0.08
B2	0.11
B3	0.24
B4	0.12
B5	0.05
B6	0.33
B7	0.12
B8	0.03
B9	0.39
B10	0.14
B11	0.19
B12	0.29
B13	0.02
B14	0.03

Molecular target: T7, human FcγRIIaH extracellular domain, …
Assay: SPR (Biacore), KD of SG1 / KD of variant

Binder	KD fold (SG1 = 1) [fold]
B1	1.4
B2	3.5
B3	1.3
B4	4.9
B5	0.6
B6	8.3
B7	1.7
B8	0.7
B9	3.3
B10	13
B11	4.9
B12	6.3
B13	0.5
B14	1.5
